According to US20190248882A1 (published 2019):

T1: human ANG-2 (R&D Systems) (UniProt O15123 68-496, biotinylated in the Tie-2 competition ELISA (site not stated))
T1 chain: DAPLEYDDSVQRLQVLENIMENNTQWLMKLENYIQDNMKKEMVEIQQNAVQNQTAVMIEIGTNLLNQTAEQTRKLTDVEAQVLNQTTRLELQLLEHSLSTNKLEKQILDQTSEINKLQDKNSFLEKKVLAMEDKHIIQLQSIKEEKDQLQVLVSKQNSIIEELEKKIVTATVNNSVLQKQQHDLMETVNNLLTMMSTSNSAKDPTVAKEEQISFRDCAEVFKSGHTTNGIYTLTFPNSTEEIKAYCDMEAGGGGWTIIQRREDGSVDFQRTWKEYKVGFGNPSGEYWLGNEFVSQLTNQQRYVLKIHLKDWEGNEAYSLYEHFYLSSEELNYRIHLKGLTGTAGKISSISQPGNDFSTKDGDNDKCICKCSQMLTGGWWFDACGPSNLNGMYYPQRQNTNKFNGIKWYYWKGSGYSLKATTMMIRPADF


How the values were obtained:
[1] = molecular target: A33A8 VH; test: BLI (Octet); VH domain alone
[2] = molecular target: T1, human ANG-2 (R&D Systems); test: inhibition of ANG-2 binding to Tie-2 on HEK293 cells

Binder	Kd [1]	IC50 [2]
ANG-2 (ligand, biotinylated in the Tie-2 competition ELISA (site not stated)) DAPLEYDDSVQRLQVLENIMENNTQWLMKLENYIQDNMKKEMVEIQQNAVQNQTAVMIEIGTNLLNQTAEQTRKLTDVEAQVLNQTTRLELQLLEHSLSTNKLEKQILDQTSEINKLQDKNSFLEKKVLAMEDKHIIQLQSIKEEKDQLQVLVSKQNSIIEELEKKIVTATVNNSVLQKQQHDLMETVNNLLTMMSTSNSAKDPTVAKEEQISFRDCAEVFKSGHTTNGIYTLTFPNSTEEIKAYCDMEAGGGGWTIIQRREDGSVDFQRTWKEYKVGFGNPSGEYWLGNEFVSQLTNQQRYVLKIHLKDWEGNEAYSLYEHFYLSSEELNYRIHLKGLTGTAGKISSISQPGNDFSTKDGDNDKCICKCSQMLTGGWWFDACGPSNLNGMYYPQRQNTNKFNGIKWYYWKGSGYSLKATTMMIRPADF	< 0.001 nM	
A33A8 human anti-ANG-2 HCAb (antibody, V domains shown) VH: QVQLVESGGGLVQPGGSLRLSCAASGFTFSSYWMHWVRQAPGKGLVWVSRINSDGSSTSYADSVKGRFTISRDNAKNTLYLQMNSLRAEDTAVYYCAREGYSSGGQFDYWGQGTLVTVSS		0.295 nM
